Test results from the supplement of paper PMC10724198.

Key:
Saccharomyces cerevisiae [1] = experiment: protein stability index of tFT-peptide fusion in deletion strain of DAS1 (PSI (0-1 scale)); higher = more stable (slower turnover)
Procedure: (§1)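 MPS profiling in S. cerevisiae of two library types built from selected 12-aa C-degron peptides (IN1, IN2, LN1, LN3, VN2, R1-R5, W1-W3, Atg1 and Rpa12 C-termini): saturation mutagenesis libraries and C-terminal +1 capping libraries (13 aa). Each peptide is fused to the C-terminus of a sfGFP-mCherry timer, after a GGGS linker. Cells are FACS-sorted into 8 mCherry/sfGFP bins and sequenced. PSI runs from 0 (unstable) to 1 (stable), measured once in wild type and in the das1Δ or doa10Δ background.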

Saccharomyces cerevisiae [2] = experiment: protein stability index of tFT-peptide fusion in wild type (PSI (0-1 scale)); higher = more stable (slower turnover); details: genetic background: wild type
Procedure: as §1
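For protein stability index of tFT-peptide fusion in deletion strain of DAS1 in this document: PSI is a weighted mean of each variant's read distribution over the sorted stability bins, computed only for variants having over 10 reads in total.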
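For protein stability index of tFT-peptide fusion in wild type in this document: PSI derived as read-weighted mean over the 8 sorting bins, only variants exceeding 10 total reads kept, mCherry placed adjacent to the peptide and sfGFP distal.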

Row | Sequence | protein stability index (Saccharomyces cerevisiae [1]) | protein stability index (Saccharomyces cerevisiae [2])
1 | CASCGYKFRTNN | 0.714 | 0.281
2 | FSMRWTFRYWVNL | 0.549 | 0.139
3 | LVVLLSCVACIN | 0.0371 | 0.0235
4 | KKHIKGQKQKIN | 0.598 | 0.0778
5 | RLIQPLWVQFLN | 0.569 | 0.0634
6 | PSLAASFDRVVG | 0.684 | 0.644
7 | VRGAVGGVRLVG | 0.654 | 0.645
8 | VRGAVGGWPLVG | 0.692 | 0.596
9 | RLIQPLPVQFQN | 0.548 | 0.366
10 | PSLAQSFWRVVG | 0.699 | 0.188
11 | FSMHWTFRYWVN | 0.664 | 0.0392
12 | FGMRWTFRYWVN | 0.53 | 0.0525
13 | PDKRNHLYKLLN | 0.598 | 0.196
14 | LKILRQKRNHQN | 0.669 | 0.299
15 | KVVYLSCVACIN | 0.0792 | 0.0215
16 | LVVYLICVACIN | 0.0584 | 0.0186
17 | PDKRNHLSKLLN | 0.659 | 0.136
18 | RLIQPLPVCFLN | 0.582 | 0.0773
19 | LKILRQKMNHQE | 0.675 | 0.507
20 | LKILRQKMNHIN | 0.671 | 0.183
21 | KKHKLGQKQKIN | 0.58 | 0.0725
22 | LKILRQGMNHQN | 0.667 | 0.49
23 | CTSCKYKFRTNN | 0.69 | 0.376
24 | LKILRQKMNCQN | 0.673 | 0.207

Row | Sequence | protein stability index (Saccharomyces cerevisiae [1]) | protein stability index (Saccharomyces cerevisiae [2])
25 | RLIQPPPVQFLN | 0.641 | 0.06
26 | ARDRVGLWRGAS | 0.716 | 0.575
27 | RLIQPLPVGFLN | 0.587 | 0.322
28 | ARWRVGLWRGASK | 0.622 | 0.672
29 | CTSCGYKFRTNNM | 0.69 | 0.679
30 | PSLYASFWRVVG | 0.674 | 0.0956
31 | FSMRWTFRYWVNW | 0.534 | 0.436
32 | RLIQPLPVQFLNC | 0.635 | 0.486
33 | RLIQPKPVQFLN | 0.586 | 0.0691
34 | ARVRVGLWRGAS | 0.694 | 0.599
35 | CLSCGYKFRTNN | 0.701 | 0.228
36 | FSMRWTFNYWVN | 0.719 | 0.0909
37 | RLIQPIPVQFLN | 0.597 | 0.0323
38 | VAGAVGGWRLVG | 0.681 | 0.142
39 | ANWRVGLWRGAS | 0.685 | 0.498
40 | LLIQPLPVQFLN | 0.624 | 0.0661
41 | RLIQPLPVQFLNL | 0.656 | 0.636
42 | PSLAASFWRNVG | 0.7 | 0.17
43 | CTSCQYKFRTNN | 0.689 | 0.334
44 | ARWRVGLWRGQS | 0.695 | 0.416
45 | RLIQPLRVQFLN | 0.593 | 0.06
46 | KKHKKGQKQKYN | 0.586 | 0.309
47 | CTSCGYKKRTNN | 0.692 | 0.474
48 | FIMRWTFRYWVN | 0.251 | 0.0251

Row | Sequence | protein stability index (Saccharomyces cerevisiae [1]) | protein stability index (Saccharomyces cerevisiae [2])
49 | PSLAASFWRVFG | 0.699 | 0.367
50 | PDKRVHLIKLLN | 0.61 | 0.128
51 | LVVYYSCVACIN | 0.0266 | 0.0106
52 | VRGAVGGWRQVG | 0.677 | 0.189
53 | VIGAVGGWRLVG | 0.689 | 0.115
54 | PSLAASFWRVVQ | 0.711 | 0.252
55 | LKILRIKMNHQN | 0.66 | 0.19
56 | LVVYLSCVAMIN | 0.032 | 0.0127
57 | IRGAVGGWRLVG | 0.681 | 0.154
58 | ARWRVGLWRLAS | 0.672 | 0.0888
59 | LVVYLSCVACII | 0.0431 | 0.0175
60 | LVVYLSCVASIN | 0.0412 | 0.0148
61 | LKILRQKTNHQN | 0.69 | 0.403
62 | FSMRWTFRYWAN | 0.537 | 0.101
63 | KKHKKGQKQKIF | 0.602 | 0.218
64 | RLIQPLPVQFKN | 0.648 | 0.618
65 | LKILRQKHNHQN | 0.67 | 0.322
66 | LKILPQKMNHQN | 0.686 | 0.417
67 | PSLAASFWRVVL | 0.724 | 0.617
68 | AKILRQKMNHQN | 0.688 | 0.185
69 | PDKRNHLIELLN | 0.702 | 0.272
70 | LKILRQKMRHQN | 0.669 | 0.301
71 | PDKRNHLIKLMN | 0.605 | 0.119
72 | CTSCDYKFRTNN | 0.689 | 0.556

Row | Sequence | protein stability index (Saccharomyces cerevisiae [1]) | protein stability index (Saccharomyces cerevisiae [2])
73 | LKWLRQKMNHQN | 0.697 | 0.146
74 | RLIQPLPDQFLN | 0.631 | 0.61
75 | LKILRNKMNHQN | 0.703 | 0.269
76 | LKILRQKGNHQN | 0.676 | 0.655
77 | ATSCGYKFRTNN | 0.671 | 0.235
78 | RLIYPLPVQFLN | 0.58 | 0.0272
79 | VRGAFGGWRLVG | 0.668 | 0.144
80 | LKILRQKMNTQN | 0.675 | 0.212
81 | PSLAASFKRVVG | 0.677 | 0.683
82 | ARWRVGLWRGAV | 0.688 | 0.395
83 | PSLAASFWRFVG | 0.707 | 0.137
84 | LVVYLSCVAWIN | 0.0302 | 0.0134
85 | PSLAASFWRVVE | 0.696 | 0.684
86 | CTSCGYRFRTNN | 0.679 | 0.464
87 | VRGAVGGWRLVGD | 0.694 | 0.646
88 | VRGSVGGWRLVG | 0.681 | 0.14
89 | FSMRETFRYWVN | 0.596 | 0.048
90 | VRGYVGGWRLVG | 0.69 | 0.174
91 | PSLAASFGRVVG | 0.672 | 0.661
92 | KKHKKGQKQKII | 0.632 | 0.12
93 | ARWRVGLPRGAS | 0.666 | 0.688
94 | VRGAVGGWRLVGY | 0.682 | 0.638
95 | CTSCGWKFRTNN | 0.673 | 0.306
96 | CTSCGYKFRANN | 0.698 | 0.538

Row | Sequence | protein stability index (Saccharomyces cerevisiae [1]) | protein stability index (Saccharomyces cerevisiae [2])
97 | LKILRQHMNHQN | 0.662 | 0.201
98 | RLIQVLPVQFLN | 0.611 | 0.0583
99 | RLIQPLPVQFLNV | 0.621 | 0.599
100 | KKHKKGQKQKINT | 0.662 | 0.62
101 | KKHKKGQEQKIN | 0.543 | 0.109
102 | ARWRPGLWRGAS | 0.679 | 0.668
103 | KKHKKGQKQKINF | 0.669 | 0.652
104 | PSLAASFWNVVG | 0.69 | 0.331
105 | FSMRWTFRYWVH | 0.439 | 0.094
106 | PSKAASFWRVVG | 0.686 | 0.139
107 | LKILRQKMNHQNS | 0.671 | 0.521
108 | PSLAASFWRVVGN | 0.689 | 0.651
109 | ARKRVGLWRGAS | 0.691 | 0.517
110 | FSMRWWFRYWVN | 0.533 | 0.0988
111 | KKHKKGQKQKINC | 0.658 | 0.333
112 | LKILRQKMNHQM | 0.656 | 0.244
113 | VRGAVCGWRLVG | 0.673 | 0.125
114 | LVVDLSCVACIN | 0.367 | 0.137
115 | LKILRQRMNHQN | 0.662 | 0.251
116 | LVEYLSCVACIN | 0.373 | 0.247
117 | ARWRGGLWRGAS | 0.677 | 0.543
